Substrate in the data set: O=c1ccn([C@@H]2O[C@H](COP(=O)(O)OP(=O)(O)O[C@H]3O[C@H](CO)[C@H](O)[C@H](O)[C@H]3O)[C@@H](O)[C@H]2O)c(=O)[nH]1
Description: purified protein. It is filed as biochemical, Oryza sativa. Particulars: 30°C, 100 mM glycine buffer pH 8.7, 1 mM NAD+, UDP-Gal varied 0.4-3.2 mM.

B1: PHD1 (PHOTO… …1) (Oryza sativa Japonica Group) (protein)
chain: DDTGVKMAGSDIVGKNDLLIVGPGVLGRLVAEKWQEEHPGCKVFGQTASTDHHNELSNIGIIPSLKGSTFPQKVPYVIFCAPPSRSDDYPGDVRVAASNWTGEGSFVFTSSTALYDCSDNELCNEDCPSVPIGRSPRTDVLLKAENVVLEAGGCVLRLAGLYKIDRGAHFFWLRKGTLDTRPDHIINQIHYEDAASLAIAIMKKGHRGRIFLGCDNKPLSRQEIMDSVNRSGKFDTKFQGFTGTDGPLGKKMENSRTRSEIGWEPKYPSFTEFLGLDS
notes: mature protein without putative N-terminal 62-aa chloroplast transit peptide (full length 340 aa); expressed in E. coli; pGEX-4T-1 (GST) in BL21(DE3), glutathione Sepharose purified (described for antibody production)
With B1, the Michaelis constant (Km) is 840 µM.

As a reminder, the Km is the concentration of substrate that gives half-maximal velocity.
